Assay results taken from publication PMC11091212 (2024).

T1: Microfibril-associated glycoprotein 4 (human, UniProt P55083 22-255, intermolecular disulphide bond between C34 of two monomers; N-glycosylated at N87 and N137 (cryo-EM density))
T1 chain: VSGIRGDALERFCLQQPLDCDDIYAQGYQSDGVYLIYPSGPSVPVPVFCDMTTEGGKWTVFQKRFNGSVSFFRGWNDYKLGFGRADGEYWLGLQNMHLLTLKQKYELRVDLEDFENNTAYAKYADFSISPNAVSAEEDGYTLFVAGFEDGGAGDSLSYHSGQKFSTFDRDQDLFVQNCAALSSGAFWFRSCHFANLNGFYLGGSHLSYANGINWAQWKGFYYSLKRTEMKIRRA


Columns and labels:
MFAP4_(C34S) = MFAP4_(C34S) (human, UniProt P55083 22-255, C34S); test: SPR; +Ca2+
[1] = biological target: T1, Microfibril-associated glycoprotein 4; test: SPR; -Ca2+
[2] = biological target: T1, Microfibril-associated glycoprotein 4; test: SPR; Ca2+

Binder | Kd (MFAP4_(C34S)) | Kd [1] | Kd [2]
fibulin-5 (natural protein) QAQCTNGFDLDRQSGQCLDIDECRTIPEACRGDMMCVNQNGGYLCIPRTNPVYRGPYSNPYSTPYSGPYPAAAPPLSAPNYPTISRPLICRFGYQMDESNQCVDVDECATDSHQCNPTQICINTEGGYTCSCTDGYWLLEGQCLDIDECRYGYCQQLCANVPGSYSCTCNPGFTLNEDGRSCQDVNECATENPCVQTCVNTYGSFICRCDPGYELEEDGVHCSDMDECSFSEFLCQHECVNQPGTYFCSCPPGYILLDDNRSCQDINECEHRNHTCNLQQTCYNLQGGFKCIDPIRCEEPYLRISDNRCMCPAENPGCRDQPFTILYRDMDVVSGRSVPADIFQMQATTRYPGAYYIFQIKSGNEGREFYMRQTGPISATLVMTRPIKGPREIQLDLEMITVNTVINFRGSSVIRLRIYVSQYPF | – | 3400 nM | –
fibrillin-1 centre region fragment rF1M (domain or fragment, limits not printed (cited paper); approximate centre region, set at calcium-binding EGF domain boundaries from the domain before TB4 to the one before TB5; Ca2+ bound, HEK-type glycosylation and disulphides likely) not shown | 1 nM | – | –
fibulin-4 (natural protein) SASPQDSEEPDSYTECTDGYEWDPDSQHCRDVNECLTIPEACKGEMKCINHYGGYLCLPRSAAVINDLHGEGPPPPVPPAQHPNPCPPGYEPDDQDSCVDVDECAQALHDCRPSQDCHNLPGSYQCTCPDGYRKIGPECVDIDECRYRYCQHRCVNLPGSFRCQCEPGFQLGPNNRSCVDVNECDMGAPCEQRCFNSYGTFLCRCHQGYELHRDGFSCSDIDECSYSSYLCQYRCINEPGRFSCHCPQGYQLLATRLCQDIDECESGAHQCSEAQTCVNFHGGYRCVDTNRCVEPYIQVSENRCLCPASNPLCREQPSSIVHRYMTITSERSVPADVFQIQATSVYPGAYNAFQIRAGNSQGDFYIRQINNVSAMLVLARPVTGPREYVLDLEMVTMNSLMSYRASSVLRLTVFVGAYTF | 90 nM | – | –
latent transforming growth factor beta binding protein-4, long isoform (natural protein) ASPSPSPSQVVEVPGVPSRPASVAVCRCCPGQTSRRSRCIRAFCRVRSCQPKKCAGPQRCLNPVPAVPSPSPSVRKRQVSLNWQPLTLQEARALLKRRRPRGPGGRGLLRRRPPQRAPAGKAPVLCPLICHNGGVCVKPDRCLCPPDFAGKFCQLHSSGARPPAPAVPGLTRSVYTMPLANHRDDEHGVASMVSVHVEHPQEASVVVHQVERVSGPWEEADAEAVARAEAAARAEAAAPYTVLAQSAPREDGYSDASGFGYCFRELRGGECASPLPGLRTQEVCCRGAGLAWGVHDCQLCSERLGNSERVSAPDGPCPTGFERVNGSCEDVDECATGGRCQHGECANTRGGYTCVCPDGFLLDSSRSSCISQHVISEAKGPCFRVLRDGGCSLPILRNITKQICCCSRVGKAWGRGCQLCPPFGSEGFREICPAGPGYHYSASDLRYNTRPLGQEPPRVSLSQPRTLPATSRPSAGFLPTHRLEPRPEPRPDPRPGPELPLPSIPAWTGPEIPESGPSSGMCQRNPQVCGPGRCISRPSGYTCACDSGFRLSPQGTRCIDVDECRRVPPPCAPGRCENSPGSFRCVCGPGFRAGPRAAECLDVDECHRVPPPCDLGRCENTPGSFLCVCPAGYQAAPHGASCQDVDECTQSPGLCGRGACKNLPGSFRCVCPAGFRGSACEEDVDECAQEPPPCGPGRCDNTAGSFHCACPAGFRSRGPGAPCQDVDECARSPPPCTYGRCENTEGSFQCVCPMGFQPNTAGSECEDVDECENHLACPGQECVNSPGSFQCRTCPSGHHLHRGRCTDVDECSSGAPPCGPHGHCTNTEGSFRCSCAPGYRAPSGRPGPCADVNECLEGDFCFPHGECLNTDGSFACTCAPGYRPGPRGASCLDVDECSEEDLCQSGICTNTDGSFECICPPGHRAGPDLASCLDVDECRERGPALCGSQRCENSPGSYRCVRDCDPGYHAGPEGTCDDVDECQEYGPEICGAQRCENTPGSYRCTPACDPGYQPTPGGGCQDVDECRNRSFCGAHAVCQNLPGSFQCLCDQGYEGARDGRHCVDVNECETLQGVCGAALCENVEGSFLCVCPNSPEEFDPMTGRCVPPRTSAGTFPGSQPQAPASPVLPARPPPPPLPRRPSTPRQGPVGSGRRECYFDTAAPDACDNILARNVTWQECCCTVGEGWGSGCRIQQCPGTETAEYQSLCPHGRGYLAPSGDLSLRRDVDECQLFRDQVCKSGVCVNTAPGYSCYCSNGYYYHTQRLECIDNDECADEEPACEGGRCVNTVGSYHCTCEPPLVLDGSQRRCVSNESQSLDDNLGVCWQEVGADLVCSHPRLDRQATYTECCCLYGEAWGMDCALCPAQDSDDFEALCNVLRPPAYSPPRPGGFGLPYEYGPDLGPPYQGLPYGPELYPPPALPYDPYPPPPGPFARREAPYGAPRFDMPDFEDDGGPYGESEAPAPPGPGTRWPYRSRDTRRSFPEPEEPPEGGSYAGSLAEPYEELEAEECGILDGCTNGRCVRVPEGFTCRCFDGYRLDMTRMACVDINECDEAEAASPLCVNARCLNTDGSFRCICRPGFAPTHQPHHCAPARPRA | 15 nM | 20 nM | –
N-terminal half of LTBP4L (domain or fragment) ASPSPSPSQVVEVPGVPSRPASVAVCRCCPGQTSRRSRCIRAFCRVRSCQPKKCAGPQRCLNPVPAVPSPSPSVRKRQVSLNWQPLTLQEARALLKRRRPRGPGGRGLLRRRPPQRAPAGKAPVLCPLICHNGGVCVKPDRCLCPPDFAGKFCQLHSSGARPPAPAVPGLTRSVYTMPLANHRDDEHGVASMVSVHVEHPQEASVVVHQVERVSGPWEEADAEAVARAEAAARAEAAAPYTVLAQSAPREDGYSDASGFGYCFRELRGGECASPLPGLRTQEVCCRGAGLAWGVHDCQLCSERLGNSERVSAPDGPCPTGFERVNGSCEDVDECATGGRCQHGECANTRGGYTCVCPDGFLLDSSRSSCISQHVISEAKGPCFRVLRDGGCSLPILRNITKQICCCSRVGKAWGRGCQLCPPFGSEGFREICPAGPGYHYSASDLRYNTRPLGQEPPRVSLSQPRTLPATSRPSAGFLPTHRLEPRPEPRPDPRPGPELPLPSIPAWTGPEIPESGPSSGMCQRNPQVCGPGRCISRPSGYTCACDSGFRLSPQGTRCIDVDECRRVPPPCAPGRCENSPGSFRCVCGPGFRAGPRAAECLDVDECHRVPPPCDLGRCENTPGSFLCVCPAGYQAAPHGASCQDVDECTQSPGLCGRGACKNLPGSFRCVCPAGFRGSACEEDVDECAQEPPPCGPGRCDNTAGSFHCACPAGFRSRGPGAPCQ | – | – | 19 nM

The next lines start with the values.

Kd (MFAP4_(C34S)) | Kd [1] | Kd [2] | Binder
19 nM | 22 nM | – | latent transforming growth factor beta binding protein-4, short isoform (natural protein) RLGERLRVRFTPVVCGLRCVHGPTGSRCTPTCAPRNATSVDSGAPGGAAPGGPGFRAFLCPLICHNGGVCVKPDRCLCPPDFAGKFCQLHSSGARPPAPAVPGLTRSVYTMPLANHRDDEHGVASMVSVHVEHPQEASVVVHQVERVSGPWEEADAEAVARAEAAARAEAAAPYTVLAQSAPREDGYSDASGFGYCFRELRGGECASPLPGLRTQEVCCRGAGLAWGVHDCQLCSERLGNSERVSAPDGPCPTGFERVNGSCEDVDECATGGRCQHGECANTRGGYTCVCPDGFLLDSSRSSCISQHVISEAKGPCFRVLRDGGCSLPILRNITKQICCCSRVGKAWGRGCQLCPPFGSEGFREICPAGPGYHYSASDLRYNTRPLGQEPPRVSLSQPRTLPATSRPSAGFLPTHRLEPRPEPRPDPRPGPELPLPSIPAWTGPEIPESGPSSGMCQRNPQVCGPGRCISRPSGYTCACDSGFRLSPQGTRCIDVDECRRVPPPCAPGRCENSPGSFRCVCGPGFRAGPRAAECLDVDECHRVPPPCDLGRCENTPGSFLCVCPAGYQAAPHGASCQDVDECTQSPGLCGRGACKNLPGSFRCVCPAGFRGSACEEDVDECAQEPPPCGPGRCDNTAGSFHCACPAGFRSRGPGAPCQDVDECARSPPPCTYGRCENTEGSFQCVCPMGFQPNTAGSECEDVDECENHLACPGQECVNSPGSFQCRTCPSGHHLHRGRCTDVDECSSGAPPCGPHGHCTNTEGSFRCSCAPGYRAPSGRPGPCADVNECLEGDFCFPHGECLNTDGSFACTCAPGYRPGPRGASCLDVDECSEEDLCQSGICTNTDGSFECICPPGHRAGPDLASCLDVDECRERGPALCGSQRCENSPGSYRCVRDCDPGYHAGPEGTCDDVDECQEYGPEICGAQRCENTPGSYRCTPACDPGYQPTPGGGCQDVDECRNRSFCGAHAVCQNLPGSFQCLCDQGYEGARDGRHCVDVNECETLQGVCGAALCENVEGSFLCVCPNSPEEFDPMTGRCVPPRTSAGTFPGSQPQAPASPVLPARPPPPPLPRRPSTPRQGPVGSGRRECYFDTAAPDACDNILARNVTWQECCCTVGEGWGSGCRIQQCPGTETAEYQSLCPHGRGYLAPSGDLSLRRDVDECQLFRDQVCKSGVCVNTAPGYSCYCSNGYYYHTQRLECIDNDECADEEPACEGGRCVNTVGSYHCTCEPPLVLDGSQRRCVSNESQSLDDNLGVCWQEVGADLVCSHPRLDRQATYTECCCLYGEAWGMDCALCPAQDSDDFEALCNVLRPPAYSPPRPGGFGLPYEYGPDLGPPYQGLPYGPELYPPPALPYDPYPPPPGPFARREAPYGAPRFDMPDFEDDGGPYGESEAPAPPGPGTRWPYRSRDTRRSFPEPEEPPEGGSYAGSLAEPYEELEAEECGILDGCTNGRCVRVPEGFTCRCFDGYRLDMTRMACVDINECDEAEAASPLCVNARCLNTDGSFRCICRPGFAPTHQPHHCAPARPRA
1.5 nM | – | – | recombinant N-terminal half of fibrillin-1 (domain or fragment) not shown
38 nM | – | – | recombinant human tropoelastin (natural protein) GGVPGAIPGGVPGGVFYPGAGLGALGGGALGPGGKPLKPVPGGLAGAGLGAGLGAFPAVTFPGALVPGGVADAAAAYKAAKAGAGLGGVPGVGGLGVSAGAVVPQPGAGVKPGKVPGVGLPGVYPGGVLPGARFPGVGVLPGVPTGAGVKPKAPGVGGAFAGIPGVGPFGGPQPGVPLGYPIKAPKLPGGYGLPYTTGKLPYGYGPGGVAGAAGKAGYPTGTGVGPQAAAAAAAKAAAKFGAGAAGVLPGVGGAGVPGVPGAIPGIGGIAGVGTPAAAAAAAAAAKAAKYGAAAGLVPGGPGFGPGVVGVPGAGVPGVGVPGAGIPVVPGAGIPGAAVPGVVSPEAAAKAAAKAAKYGARPGVGVGGIPTYGVGAGGFPGFGVGVGGIPGVAGVPGVGGVPGVGGVPGVGISPEAQAAAAAKAAKYGAAGAGVLGGLVPGAPGAVPGVPGTGGVPGVGTPAAAAAKAAAKAAQFGLVPGVGVAPGVGVAPGVGVAPGVGLAPGVGVAPGVGVAPGVGVAPGIGPGGVAAAAKSAAKVAAKAQLRAAAGLGAGIPGLGVGVGVPGLGVGAGVPGLGVGAGVPGFGAGADEGVRRSLSPELREGDPSSSQHLPSTPSSPRVPGALAAAKAAKYGAAVPGVLGGLGALGGVGIPGGVVGAGPAAAAAAAKAAAKAAQFGLVGAAGLGGLGVGGLGVPGVGGLGGIPPAAAAKAAKYGAAGLGGVLGGAGQFPLGGVAARPGFGLSPIFPGGACLGKACGRKRK
